From US20250027068A1 (published 2025)

Target: pooled human IgG (human IgG1, 2, 3 and 4) (human)
Test: cell-based or functional assay
Also: test concentration or dose not given here.

Row | Binder | Enzyme Activity Endpoint Assay: Fab′2 | Enzyme Activity Endpoint Assay: Fc | Enzyme Activity Endpoint Assay: IgG | Enzyme Activity Endpoint Assay: scIgG
1 | PRT-443 (enzyme) MSQTEDSESLQRLRDIEDFQAEKKKQNVVYTKWLDGVDVKDHDFRKIVDGNIAYYATPLLNGRGFYDINKDFNRDSDKCAAAVAANMFHYWLDRNRDNVDRFLRQNPEKHGIIELPDEQLKLSDFLNTYESDDGYRDKSKLFDFISNNFNGPVWTDKLLDNYINGYAYNYKYGRTIEDPTKNTSKINFFKEVFNEKILTNNHSIRNQNEFSVLLSEALYTGKAIGLSYGPAGLRHSLGHIISVWGADLDADGNVVAIYVTDSDDKKLTIGDERVGLKRYKISTDDEGRLRLTAYEETHNTGGQIRGLWTLDTGKQAWADYFDKTEQTGTDQAEQ | 17 ng/µL | 0 ng/µL | 431 ng/µL | 535 ng/µL
2 | PRT-401 (enzyme) MVTSVWTKGVTPPADFTQGEDVFHAPYVANQGWYDITKEFNGKDDLLCGAATAGNMLHWWFDQNKEYIEAYLKKHPEKQKIMFGDQELLDVRKAINTKGSQKNSELFNYFRDKAFPNLSARRLGVMPDLVLDMFINGYYLNVTKTQTTDVNRTYQEKDKRGGIFDAVFTRGDQSKLLTSRHDFKEKGLKEISDLIKQELTEGKALGLSHTYANVRINHVINLWGADFDSDGNLKAIYVTDSDSNASIGMKKYFVGVNSAGKVAISAKEIKEDNIGAQVLGLFTLSTGQDIWNQTN | 624 ng/µL | 329 ng/µL | 128 ng/µL | 0 ng/µL
3 | PRT-410 (enzyme) MVTSVWTKGVTPPADFTQGEDVFHAPYVANQGWYDITKTFNGKDDLLCGAATAGNMLHWWFDQNKEYIEAYLKKHPEKQKIMFGDQELLDVRKAINTKGSQKNSELFNYFRDKAFPNLSARRLGVMPDLVLDMFINGYYLNVTKTQTTDVNRTYQEKDKRGGIFDAVFTRGDQSKLLTSRHDFKEKGLKEISDLIKQELTEGKALGLSHTYANVRINHVINLWGADFDSDGNLKAIYVTDSDTNASIGMKKYFVGVNSAGKVAISAKEIKEDNIGAQVLGLFTLSTGQDIWNQTN | 567 ng/µL | 297 ng/µL | 206 ng/µL | 0 ng/µL
4 | PRT-402 (enzyme) MVTSVWTKGVTPPADFTQGEDVFHAPYVANQGWYDITKTFNGKDDLLCGAATAGNMLHWWFDQNKEYIEAYLKKHPEKQKIMFGDQELLDVRKAINTKGSQKNSELFNYFRDKAFPNLSARRLGVMPDLVLDMFINGYYLNVTKTQTTDVNRTYQEKDKRGGIFDAVFTRGDQSKLLTSRHDFKEKGLKEISDLIKQELTEGKALGLSHTYANVRLNHVINLWGADFDSDGNLKAIYVTDSDSNASIGMKKYFVGVNSAGKVAISAKEIKEDNIGAQVLGLFTLSTGQDIWNQTN | 530 ng/µL | 342 ng/µL | 0 ng/µL | 188 ng/µL
5 | PRT-409 (enzyme) MVTSVWTKGVTPPADFTQGEDVFHAPYVANQGWYDITKTFNGKDDLLCGAATAGNMLHWWFDQNKEYIEAYLKKHPEKQKIMFGDQELLDVRKAINTKGSQKNSELFNYFRDKAFPNLSARRLGVMPDLVLDMFINGYYLNVTKTQTTDVNRTYQEKDKRGGIFDAVFTRGVQSKLLTSRHDFKEKGLKEISDLIKQELTEGKALGLSHTYANVRINHVINLWGADFDSDGNLKAIYVTDSDSNASIGMKKYFVGVNSAGKVAISAKEIKEDNIGAQVLGLFTLSTGQDIWNQTN | 658 ng/µL | 313 ng/µL | 0 ng/µL | 0 ng/µL
6 | PRT-376 (enzyme) MVTSVWTKGVTPPTNFTYGEDVLHAPYVANQGWYDITKLFNGKDDLLCGAATAGNMLHWWFDQNKEQIENYLKKHPEKQKINFNGEQMFDVKEAIDTKDSQLDSKLFEYFKEKAFPYLSTKHLGVFPDHVIDMFINGYRLSLTNHGPTPVKRGSKDPRGGIFDAVFTRGDQSKLLTNRHDFKEKTLKEISDLIKQELTEGKALGISHTYANVRINHVINLWGADFDAEGNLEAIYVTDSDSNASIGMKKYFVGVNSNGKVAISAKEIEEDNIGAQVLGLFTLSTGQDIWNQTN | 496 ng/µL | 325 ng/µL | 0 ng/µL | 196 ng/µL
7 | PRT-386 (enzyme) MVTSVWTKGVTPPTNFTYGEDVLHAPYVANQGWYDITKTFNGKDDLLCGAATAGNMLHWWFDQNKEQIENYLKKHPEKQKINFNGEQMFDVKEAIDTKDSQLDSKLFEYFKEKAFPYLSTKHLGVFPDHVIDMFINGYRLSLTNHGPTPVKRGSKDPRGGIFDAVFTRGDQSKLLTNRHDFKEKTLKEISDLIKQELTEGKALGISHTYANVRINHVINLWGADFDAEGNLEAIAVTDSDSNASIGMKKYFVGVNSNGKVAISAKEIEEDNIGAQVLGLFTLSTGQDIWNQTN | 519 ng/µL | 337 ng/µL | 0 ng/µL | 240 ng/µL
8 | PRT-394 (enzyme) MVTSVWTKGVTPPTNFTYGEDVLHAPYVANQGWYDITKTFNGKDDLLCGAATAGNMLHWWFDQNKEQIENYLKKHPEKQKINFNGEQMFDVKEAIDTKDSQLDSKLFEYFKEKAFPYLSTKHLGVFPDHVIDMFINGYRLSLTNHGPTPVKRGSKDPRGGIFDAVFTRGDQSKLLTNRHDFKEKTLKEISDLIKQELTEGKALGISHTYANVRINHVINLWGADFDAEGNLEAIYVTDSDSEASIGMKKYFVGVNSNGKVAISAKEIEEDNIGAQVLGLFTLSTGQDIWNQTN | 482 ng/µL | 323 ng/µL | 0 ng/µL | 209 ng/µL
9 | PRT-378 (enzyme) MVTSVWTKGVTPPTNFTYGEDVLHAPYVANQGWYDITKTFNGKDDLLCGAATAGNMLHWWFDQNKEQIENYLKKHPEKQKINFNGEQMFDVKEAIDTKDSQLDSKLFEYFKEKAFPSLSTKHLGVFPDHVIDMFINGYRLSLTNHGPTPVKRGSKDPRGGIFDAVFTRGDQSKLLTNRHDFKEKTLKEISDLIKQELTEGKALGISHTYANVRINHVINLWGADFDAEGNLEAIYVTDSDSNASIGMKKYFVGVNSNGKVAISAKEIEEDNIGAQVLGLFTLSTGQDIWNQTN | 477 ng/µL | 319 ng/µL | 0 ng/µL | 207 ng/µL
10 | PRT-385 (enzyme) MVTSVWTKGVTPPTNFTYGEDVLHAPYVANQGWYDITKTFNGKDDLLCGAATAGNMLHWWFDQNKEQIENYLKKHPEKQKINFNGEQMFDVKEAIDTKDSQLDSKLFEYFKEKAFPYLSTKHLGVFPDHVIDMFINGYRLSLTNHGPTPVKRGSKDPRGGIFDAVFTRGDQSKLLTNRHDFKEKTLKEISDLIKQELTEGKALGISHTYANGRINHVINLWGADFDAEGNLEAIYVTDSDSNASIGMKKYFVGVNSNGKVAISAKEIEEDNIGAQVLGLFTLSTGQDIWNQTN | 494 ng/µL | 265 ng/µL | 103 ng/µL | 56 ng/µL
11 | PRT-393 (enzyme) MVTSVWTKGVTPPTNFTYGEDVLHAPYVANQGWYDITKTFNGKDDLLCGAATAGNMLHWWFDQNKEQIENYLKKHPEKQKINFNGEQMFDVKEAIDTKDSQLDSKLFEYFKEKAFPYLSTKHLGVFPDHVIDMFINGYRLSLTNHGPTPVKRGSKDPRGGIFDAVFTRGDQSKLLTNRHDFKEKTLKEISDLIKQELTEGKALGISHTYANVRINHVINLWGADFDAEGNLEAIYVTDSDTNASIGMKKYFVGVNSNGKVAISAKEIEEDNIGAQVLGLFTLSTGQDIWNQTN | 663 ng/µL | 317 ng/µL | 0 ng/µL | 0 ng/µL
12 | PRT-280 (enzyme) MVTSVWTKGVTPPAKFTQGEDVFHAPYVANQGWYDITKTFNGKDDLLCGAATAGNMLHWWFDQNKEKIEAYLKKHPDKQKIMFGDQELLDVRKVINTKGDQTNSELFNYFRDKAFPNLSARRIGVMPDLVLDMFINGYYLNVYKTQTTDVNRTYQEKDRRGGIFDAVFTRGDQSKLLTSRHDFKEKNLKEISDLIKKELTEGKALGLSHTYANVGINHVINLWGADFDSNGNLKAIYVTDSDSNASIGMKKYFVGVNSSGKVAISAKEIKEDNIGAQVLGLFTLSTGQDSWNQTN | 423 ng/µL | 305 ng/µL | 319 ng/µL | 0 ng/µL
13 | PRT-288 (enzyme) MVTSVWTKGVTPPAKFTQGEDVFHAPYDANQGWYDITKEFNGKDDLLCGAATAGNMLHWWFDQNKEKIEAYLKKHPDKQKIMFGDQELLDVRKVINTKGDQTNSELFNYFRDKAFPNLSARRIGVMPDLVLDMFINGYYLNVYKTQTTDVNRTYQEKDRRGGIFDAVFTRGDQSKLLTSRHDFKEKNLKEISDLIKKELTEGKALGLSHTYANVRIGHVINLWGADFDSNGNLKAIYVTDSDSNASIGMKKYGVGVNSAGKVAISAKEIKEDNIGAQVLGLFTLSTGQDSWNQTN | 439 ng/µL | 334 ng/µL | 348 ng/µL | 0 ng/µL
14 | PRT-417 (enzyme) MTITSVWTKGVTPPTPEDFRYNNEDVLHAPYVANQGWYDITKTFDGKDNLLCGAATAGNMLHWWFDQNKEEIERYLKKHPEKQKIIFNNQELFDVKAAIDTKDSQTNSKLFNYFRDKAFPNLSARQLGVMPDLVLDMFINGYYLNLGKTQSTDVNRPYQDKDKRGGIFDAVFTRGDQTTLLTARHDLKNKGLNEISDLIKQELTEGKALALSHTYANVRINHVINLWGADFDAEGELIAIYVTDSDANASIGMKKYFVGVNANGKVAISAKKIEGDNIGAQVLGLFTLSTGQDIWQKLS | 193 ng/µL | 27 ng/µL | 324 ng/µL | 0 ng/µL
15 | PRT-425 (enzyme) MTITSVWTKGVTPPTPEDFRYNNEDVLHAPYVANQGWYDITKTFDGKDNLLCGAATAGNMLHWWFDQNKEEIERYLKKHPEKQKIIFNNQELFDVKAAIDTKDSQTNSKLFNYFRDKAFPGLSARQLGVMPDLVLDMFINGYYLNLGKTQSTDVNRPYQDKDKRGGIFDAVFTRGDQTTLLTARHDLKNKGLNEISDLIKQELTEGKALALSHTYANVRINHVINLWGADFDAEGNLIAIYVTDSDANASIGMKKYFVGVNANGKVAISAKKIEGDNIGAQVLGLFTLSTGQDIWQKLS | 568 ng/µL | 27 ng/µL | 169 ng/µL | 0 ng/µL
